The results in this text go back to paper PMC4169731 (Peptides, 2014).

Common to all, as to assay type: in vivo, mouse
In series [1] the test system is AA amyloid deposits. The series is described as follows: Longitudinal SPECT/CT imaging of ^125I-p5 in AA mice.
Series [2] relates to AA amyloid deposits. The series is described as follows: Tissue biodistribution of ^124I radioactivity. As to conditions: 120 min pi of ^124I-p5; n = 3; more in AA mice.
Series [3] in a line: Dynamic PET/CT imaging of ^124I-p5, time activity curves, healthy. As to conditions: WT mice, ^124I-p5 IV.
In series [4] the test system is amyloid-laden (AA) H2-L^d-HuIL-6 Tg BALB/c mice. The series is described as follows: Dynamic PET/CT imaging of ^124I-p5, time activity curves, amyloid-laden.
Series [5] is described as follows: Dynamic PET/CT imaging of ^124I-p5 in mice. The conditions noted are these: ^124I-p5 IV, dynamic PET.
Series [6] concerns AA amyloid deposits. As to conditions: ^125I-p5; 72 h pi; AA mice; microautoradiography.
[7] abbreviates: dynamic PET 2 h, double exponential fit.
Where [8] appears, read: dynamic PET 2 h, single exponential fit.
[9] abbreviates: AA mice, ^124I-p5 IV, dynamic PET 2 h, double exponential fit.
The mark [10] stands for this setting: AA mice, ^124I-p5 IV, dynamic PET 2 h, single exponential fit.
Where [11] appears, read: higher in AA mice, biexponential decay, dynamic PET.

Where “and” joins values, the source holds several entries; their conditions need not be identical. Identical values can stand only once. Where a SMILES comes first, the peptide text is derived from it. The star is where a group is joined. 124I = [124I]*; 125I = [125I]*

Turning to `C[C@H](NC(=O)[C@H](CCC(N)=O)NC(=O)[C@H](C)NC(=O)[C@H](CCCCN)NC(=O)[C@H](CCC(N)=O)NC(=O)[C@H](C)NC(=O)[C@H](CCCCN)NC(=O)[C@H](CCC(N)=O)NC(=O)[C@H](C)NC(=O)[C@H](CCC(N)=O)NC(=O)[C@H](CCCCN)NC(=O)[C@H](C)NC(=O)[C@H](CCC(N)=O)NC(=O)[C@H](CCCCN)NC(=O)[C@H](C)NC(=O)[C@H](CCC(N)=O)NC(=O)[C@H](C)NC(=O)[C@H](CCCCN)NC(=O)[C@H](CCC(N)=O)NC(=O)[C@H](C)NC(=O)[C@H](CCCCN)NC(=O)[C@H](CO)NC(=O)[C@H](Cc1ccc(O)cc1)NC(=O)CNC(=O)CNC(=O)CN)C(=O)N[C@@H](CCCCN)C(=O)N[C@@H](CCC(N)=O)C(=O)N[C@@H](C)C(=O)N[C@@H](CCCCN)C(=O)N[C@@H](CCC(N)=O)C(=O)O` [p5] (H-GGGYSKAQKAQAKQAKQAQKAQKAQAKQAKQ-OH), the “Time the peptide remains bound to amyloid in vivo” value in series [1] (mice) is listed as “at least 3 days”. In addition, in series [1] (mice, pi), the “Time the peptide remains stably bound to amyloid deposits and radioactive” value is “at least 72 h”.

In the case of “^124I-p5: peptide p5 radiolabeled with ^124I on Tyr using Iodogen, for PET imaging (H-GGGY(124I)SKAQKAQAKQAKQAQKAQKAQAKQAKQ-OH)”, the “Radioactivity (%ID/g) in liver, pancreas and spleen, AA mice compared to WT mice” value in series [2] is ~ 10 fold. In addition, in series [3] (dynamic PET), the “Lag time (tlag) before accumulation of radioactivity in stomach” value is reported as ~ 8 min and the “Time of peak activity in the kidneys (tmax)” value is ~ 7 min. Moreover, in series [3] (setting [7]), the “T1/2 fast, liver” value was found to be 0.70 min; the “T1/2 slow, blood” value was 37.99 min; the “T1/2 slow, liver” value was found to be 20.82 min. The “Kfast, kidney” value in series [3] (dynamic PET 2 h, single exponential decay after peak) was 0.06 min⁻¹ and 0.06 ± 0.001 min⁻¹. For the same compound, in series [3] (setting [8]), the “T1/2 fast, kidney” value turned out to be 10.96 min; the “T1/2 fast, spleen” value is 11.19 min; the “T1/2 fast, thyroid” value was found to be 20.67 min. Besides, the “Lag time (tlag) before accumulation of radioactivity in stomach” value in series [4] (AA mice, ^124I-p5 IV, dynamic PET) is given as ~ 8 min. Besides, in series [4] (AA mice, ^124I-p5 IV, dynamic PET 2 h, double exponential association), the “Kslow, liver” value turned out to be 0.17 ± 0.01 min⁻¹. In series [4] (setting [9]), the “Kslow, blood (heart ROI)” value stood at 0.49 ± 0.04 min⁻¹; the “T1/2 fast, blood” value amounted to 0.49 min; the “T1/2 fast, liver” value is 0.31 min. Besides, the “Kfast, spleen” value in series [4] (AA mice, ^124I-p5 IV, dynamic PET 2 h, single exponential association) came out at 0.04 ± 0.00 min⁻¹. In series [4] (setting [10]), the “Kfast, kidney” value is 0.04 min⁻¹ and 0.04 ± 0.003 min⁻¹; the “T1/2 fast, kidney” value amounted to 16.62 min; the “T1/2 fast, spleen” value was found to be 15.62 min. In series [4] (setting [11]), the “Blood pool Kfast (α component), AA mice relative to WT mice” value is given as above 2 fold and the “Blood pool Kslow (β), AA mice relative to WT mice” value is above 2 fold. Besides, in series [5] (WT and AA not distinguished), the “Lag time (tlag) of thyroid radioactivity” value was ~ 8 min. Moreover, the “Radioactivity removed from the blood pool” value in series [5] (by 5 min pi) was ~ 90%.

Turning to “^125I-p5: peptide p5 radioiodinated with ^125I using chloramine T, for SPECT imaging (H-GGGY(125I)SKAQKAQAKQAKQAQKAQKAQAKQAKQ-OH)”, the “Reactivity with healthy tissues” value in series [6] was “No significant reactivity”. In addition, in series [1] (AA mice, ^125I-p5, 72 h pi, SPECT), the “Loss of radioactivity from major amyloid organs (liver, spleen and pancreas)” value is on record as “essentially no loss of radioactivity”. In addition, the “Time of retention in the liver and spleen” value in series [1] (AA mice, ~5 μg ^125I-p5 (~150 μCi) IV, SPECT/CT at 2, 24, 48, 72 h pi) was “more than 72 h”.
